Data set [1] relates to rat aortic ring. The data set can be described thus: Rat aortic ring angiogenesis assay (Example 4.3). It counts as cell-based, Lewis rat. The note with it: for % of Control: microvessel growth. As to the method:
Four separate studies were carried out to determine the angiogenic effect of crystallin preparations. Each sample was assayed in triplicate. A positive control (VEGF) and a vehicle control containing PBS was also run in triplicate. […] Preliminary statistical significance was assessed with an independent Student t-test at α<0.05. Graphical representation of averages +/− standard errors were determined.
The first study investigated the angiogenic potential of bovine fractions prepared by gel filtration analysis as described in Example 3.2. As described in that Example, the alpha fraction contained αA and αB crystallin, the β H fraction contained all β crystallins, the β L1 fractions contained a sub-fraction of beta crystallins and a high content of βB2 crystallin and beta B3 crystallin and the beta L2 fraction contained only βB2 crystallin and βA3 crystallin.
The second study investigated the angiogenic potential of purified crystallin proteins. Briefly, βB3 crystallin was prepared by heating (97-99° C. for 3 minutes, supernatant collected by centrifugation) and was essentially homogenous. Alpha A crystallin and αB crystallin samples were prepared by ion exchange chromatography as described above and were also essentially homogenous. The Wound Heal 1-3 preparations were also tested in this study.
The third study investigated the angiogenic potential of ovine crystallin proteins compared to their bovine equivalents. Both bovine and ovine crystallin proteins were purified essentially to homogeneity by RP. HPLC using a C4 column, as described below in Example 5. Homogeneity was confirmed by SDS-PAGE. The effect of elastase I treatment of βB2 crystallin was also investigated by comparing the angiogenic potential of intact βB2 crystallin (i.e. undigested) with elastase I digested βB2 crystallin. Elastase I treatment releases the N-terminal and C-terminal extensions of the crystallin protein leaving a globular protein that is monomeric.
In the final study, ovine βB2 crystallin was tested alone or in combination with indoleamine 2,3-dioxygenase (IDO) and ovine alpha B crystallin was tested alone or in combination with tryptophan dioxygenase (TDO)
Briefly, in each study, a single Lewis rat was euthanised and its aorta transferred to a 15 mL Falcon tube containing 10 mL of MCBD-131 medium and stored on ice. After transferring the aorta to a 92×17 mm petri dish containing 10 mL of ice cold MCDB-131, the outer fatty tissue was removed under an Olympus SZ-60 Dissecting microscope. This was undertaken with fibre optic lamp illumination. The aorta was then cut into sequential rings approximately 2 mm in size. Connective tissue was removed with micro scissors and forceps from the outside of the individual rings. Clean rings were stored in a separate petri dish in sterile MCDB-131 medium. Rings were pre-incubated overnight at 37° C. in an atmosphere of 97% air/3% CO2.
To prepare gel sandwiches, 75 mg of fibrinogen was added to 25 mL MCDB-131 medium and shaken gently on a rocker roller for 5 minutes. 3 ml of MCDB-131/fibrinogen solution was added to a 15 mL Falcon tube, followed by 10 μL of thrombin and quickly mixed. A 0.4 mL volume of this fibrinogen-thrombin solution was added to each well on a 24 well plate, 6 wells at a time. Aortic rings were then placed on the setting gel, pushed gently into the gel and left for 45 minutes. These steps were then repeated so each ring was covered with 0.4 mL of gel. Gels were left to set at room temperature. […] The plate was then placed in incubator (37° C., 97% air/3% CO2).
Culture plate were examined daily for signs of infection (fungal growth or yellowing of media) in the wells using an inverted microscope. The growth of microvessels from their perimeters was also observed. Digital photographs of each well were taken seven days after plating using a Pixera PVC-100C digital camera mounted on an OLYMPUS CK-12 microscope and stored on a Macintosh Computer. […]

For data set [2], the target named is T1, elastase I (Sus scrofa, UniProt P00772).
T1 construct: purchased Worthington Biochemical Corporation 2280
T1 sequence (P00772 27-266): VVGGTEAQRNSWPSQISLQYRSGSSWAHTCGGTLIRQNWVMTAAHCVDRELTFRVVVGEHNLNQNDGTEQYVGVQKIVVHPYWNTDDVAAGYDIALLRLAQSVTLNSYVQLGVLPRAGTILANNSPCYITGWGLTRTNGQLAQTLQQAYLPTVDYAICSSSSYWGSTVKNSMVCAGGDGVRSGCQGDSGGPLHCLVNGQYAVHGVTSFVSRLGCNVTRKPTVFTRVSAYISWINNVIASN
The data set can be described thus: Chaperone activity: protection of elastase I from heat denaturation. It counts as biochemical. The conditions noted are these: boiling water bath for 30 seconds. As to the method: Bovine crystallin fractions were tested for ability to protect the proteases elastase I, trypsin and chymotrypsin from heat denaturation. Briefly, the proteases were heated in a boiling water bath for 30 seconds in the presence or absence of the crystallin fractions.

Data set [3] has as its system full thickness 12 mm wound. Kind of data set: Wound healing assay (Example 3.6). It counts as in vivo, male Lewis rats. The conditions noted are these: for Wound areas: mg/wound: Wound heal 1 0.01, Wound heal 2 0.1, Wound heal 3 1.0, Aloe vera 20. The method, then:
Thirty male Lewis rats were divided into 5 groups of 6 rats as outlined below in Table 7. Rats were age and weight matched. Rats were permitted rodent diet and water ad libitum throughout the study.
The animals were weighed two days before the start of the trial and weights grouped from lightest to heaviest. Animals were then randomly assigned to groups based on body weights, using 5×5 Latin squares so that group means were as similar as possible.
Approximately 30 minutes before wounding, each animal was given a subcutaneous injection of Temgesic at the base of the neck (0.075 mg/kg body weight). Each animal was anaesthetised using 3% halothane in oxygen. Once the pedal reflexes had been abolished, the animals were shaved from the base of the skull to the hind limb area using electric clippers. The skin on each rat was disinfected using 0.5% chlorhexidine in 70% ethanol. For each animal, the distance from the base of the skull to the top of the hip joint was measured and the wound position marked with a black felt tip pen, 6 cm below the base of the skull along the spinal axis.
Using asceptic techniques a full thickness incision was made at this position using a sterile 12 mm biopsy punch. Any bleeding was removed using cotton swabs. Care was taken that the punch was dry and that no debris (eg., skin, hair) entered the wounds. […] After photography of each wound using a Canon Digital EOS 20D camera with a F2.8 Macro lens, an aliquot of the sample was applied to the wounds on the rats in Groups A, B, D and E using a Gilson Microman CP 100 positive displacement pipette. The biopsy punch was wiped inside with a swab soaked in sterile saline to remove any tissue fluids and/or debris. The punch was then immersed in 70% ethanol before use on the next animal.
For applications and photographs after day 1 the animals were restrained without being anaesthetised.
(§1) Body weights were measured on days 1, 3, 5, 7, 9, 11, 13, 15, 17, 19, 21 and 23 and deviations from original body weights (on day 1) calculated for each animal. On the same days, photographs were taken using a Canon Digital Eos 20D with a F2.8 Macro lens. Photographs were downloaded and wound areas measured using NIH Image J 1.633u software (National Institutes of Health (NIH), Rockville Pike, Bethesda, Md., United States). A laser speckle image was also taken at the same time as each space photograph was taken. Animals were weighed every second day when the photographic record of wound closure rate was also made.
The redness and swelling of each wound were individually scored from visual observation. These were scored on a scale of 0-3 as follows:
Descriptive statistics were evaluated. […] Major analyses were performed on all data points collected. Preliminary analyses were undertaken on control wounds only using t-tests. Univariate ANOVAs were used to assess differences between treatment and controls and samples nested within treatments. A separate ANOVA assessed whether there was a dose response using the treatment samples only. Assumptions for normality were tested using q-q plots on studentized residuals and heterogeneity of variances were tested using Levene's tests. SPSS 11 for Mac OSX was used for assumption testing and statistical analysis.

A short description of data set [4]: Body weight during wound healing assay (Example 3.6). It counts as in vivo, male Lewis rats. The conditions noted are these: PBS control returned by day 11. The method, then: as §1
Where [5] appears, read: summary of second and third study.

B1: Tryptophan dioxygenase TDO: tryptophan hydrolyzing enzyme (protein, UniProt P48775 1-406, looked up)
Tryptophan 2,3-dioxygenase: MSGCPFLGNNFGYTFKKLPVEGSEEDKSQTGVNRASKGGLIYGNYLHLEKVLNAQELQSETKGNKIHDEHLFIITHQAYELWFKQILWELDSVREIFQNGHVRDERNMLKVVSRMHRVSVILKLLVQQFSILETMTALDFNDFREYLSPASGFQSLQFRLLENKIGVLQNMRVPYNRRHYRDNFKGEENELLLKSEQEKTLLELVEAWLERTPGLEPHGFNFWGKLEKNITRGLEEEFIRIQAKEESEEKEEQVAEFQKQKEVLLSLFDEKRHEHLLSKGERRLSYRALQGALMIYFYREEPRFQVPFQLLTSLMDIDSLMTKWRYNHVCMVHRMLGSKAGTGGSSGYHYLRSTVSDRYKVFVDLFNLSTYLIPRHWIPKMNPTIHKFLYTAEYCDSSYFSSDESD
As to B1, in data set [1] (forth study, 100 μg/mL), the “angiogenic activity (in words)” value was “stimulatory” and the “% of Control” value worked out at 106.2%.

B2: Wound Heal 1: bovine βB2 crystallin, fractionated at pH 5.3 on Sephacryl 300 HR; Group B of Example 3, 0.01 mg/wound (protein)
chain: ASDHQTQAGKPQPLNPKIIIFEQENFQGHSHELNGPCPNLKETGVEKAGSVLVQAGPWVGYEQANCKGEQFVFEKGEYPRWDSWTSSRRTDSLSSLRPIKVDSQEHKITLYENPNFTGKKMEVIDDDVPSFHAHGYQEKVSSVRVQSGTWVGYQYPGYRGLQYLLEKGDYKDSGDFGAPQPQVQSVRRIRDMQWHQRGAFHPSS
Consider B2, for which, in data set [1] (second study, 200 μg/mL), the “% of Control” value came out at 94.52%. The “chaperone activity: protection of elastase I from heat denaturation (in words)” value in data set [2] is on record as “not”. The Wound areas in data set [3] (Day 1 (=100)) worked out at 100; in data set [3] (Day 3), 86; in data set [3] (Day 5) it was 75; in data set [3] (Day 7) it was 69; in data set [3] (Day 9), 54; in data set [3] (Day 11), 32. Besides, the Wound areas in data set [3] (Day 13) amounted to 18; in data set [3] (Day 15), 13; in data set [3] (Day 17) it was 8; in data set [3] (Day 19) it was 4; in data set [3] (Day 21), 1.7; in data set [3] (Day 23), 1.4. For the same molecule, the mean wound area in data set [3] (day 5) amounted to 123 ± 14.7 mm². Also, the “wound area at day 5, statistical significance” value in data set [3] (day 5, p=0.045 (Wound Heal 1), p=0.008 (Wound Heal 2)) is listed as “significantly smaller”. Moreover, in data set [3] (rat, in vivo), the “healing rate compared to Control group (PBS), in words” value is on record as “slightly faster healing rate than the reference group over the first 7 days”. The “day by which mean body weight had returned to the starting (pre-wounding) weight” value in data set [4] is at most 14 days.

B3: Bovine βB2 crystallin (non-elastase treated): intact bovine βB2 crystallin prepared by RP HPLC on C4 column (protein, UniProt P02522 2-205, looked up)
Beta-crystallin B2: B2 chain
Take B3: in data set [1] (setting [5]), the “angiogenic activity (in words)” value is on record as “not angiogenic”. In data set [1] (third study, 100 μg/mL), the “% of Control” value was found to be 93.4%.

B4: Ovine βB2 crystallin: intact ovine βB2 crystallin prepared by RP HPLC on C4 column (protein)
chain: ASDHQTQAGKPQPLNPKIIIFEQENFQGHSHELNGPCPNLKETGVEKAGSVLVQAGPWVGYEQANCKGEQFVFEKGEYPRWDSWTSSRRTDSLSSLRPIKVDSQEHKITLYENPNFTGKKMEVIDDDVPSFHAHGYQEKVSSVRVQSGTWVGYQYPGYRGLQYLLEKGDYKDSGDFGAPQPQVQSVRRIRDMQWHQRGAFHPS
Consider B4, for which the “angiogenic activity (in words)” value in data set [1] (setting [5]) is on record as “not angiogenic”. Moreover, in data set [1] (third study, 100 μg/mL), the “% of Control” value is listed as 103.5%.

B5: Bovine αB crystallin: bovine αB crystallin prepared by ion exchange chromatography, essentially homogenous (protein)
chain: MDIAIHHPWIRRPFFPFHSPSRLFDQFFGEHLLESDLFPASTSLSPFYLRPPSFLRAPSWIDTGLSEMRLEKDRFSVNLDVKHFSPEELKVKVLGDVIEVHGKHEERQDEHGFISREFHRKYRIPADVDPLAITSSLSSDGVLTVNGPRKQASGPERTIPITREEKPAVTAAPKK
For B5, the “% of Control” value in data set [1] (second study, 200 μg/mL) was found to be 85.21%. Further, the “chaperone activity: protection of elastase I from heat denaturation (in words)” value in data set [2] is “able to protect elastase I from heat inactivation”.

The record behind these values is US8404644B2, “Agents with angiogenic and wound healing activity” (Meat & Livestock Australia Limited, priority 2007, dated 2013).
